Columns and labels:
[1] = target: 2xStrepII-ecHOP1-HORMA (ecHOP1 residues 1-274) (Ectocarpus siliculosus); assay: ITC; 350 µM MBP-tagged CM titrated into 25 µM ecHOP1-HORMA in the cell; 50 mM HEPES pH 7.5, 150 mM NaCl, 1 mM EDTA; 25 °C; MicroCal PEAQ-ITC; triplicate
[2] = tested on: ecHOP1-wHTH (SUMO-wHTH) (Ectocarpus); assay: EMSA; conditions: apparent Kd, Hill h = 1.7; 50 nM DNA; EMSA: 50 nM nucleic acid, protein 25 nM-2 uM, ~30 min at 4 C, 0.8% agarose in 0.2% TBE (so in the source) at 4 C, SYBR Gold; binding buffer, salt and pH not stated

| Kd [1] [µM] | Substance | Kd [2] [µM] |
| --- | --- | --- |
| 60.3 | His6-MBP-CM-R-A (ecRED1 closure motif A) (domain or fragment) |  |
|  | 167 bp Widom DNA | 0.25 |
| 7.2 | MBP-CM-H1-A (ecHOP1 isoform 1 closure motif A, residues 567-600) (domain or fragment) |  |
| 10.6 | MBP-CM-H1-B (ecHOP1 isoform 1 closure motif B, residues 665-694) (domain or fragment) |  |

From PMC12678776
